From the NTF2 design screens of Basanta et al. (2020)

Experiment: protease stability score; higher = more stable; yeast display proteolysis, trypsin and chymotrypsin;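 also: relative to predicted unfolded state with 0 unfolded-like and 1 meaning tenfold more protease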

Row | Sequence | protease stability score
1 | SEEEKLLTDWLRELEEVTRTGDEESIMRMVDPNDKMDVGDKHRHGMHAQEVWIEVFRRQFGIDNFEVRLIINHRRIVDGQAHVDGELQLIYNGRTTSLRIELIIDKFDGRWLISSIRYN | 1.19
2 | SEEEKLQREMSKRWIEEVFTGNEEVFEQLADPNTIIDINGQHLHGMETFSKWSREHIKKLGWTQFDIKMRDSKVIGNKAKLDLELHVNGKVVKVEVNLEVIDGRIKKIEERHH | -0.143
3 | SEEEKLRKSLVELILHALHTGDWERLTRLLDPHVRWDQGDKVFHGREDFKRAWTELGVDHFQLRHIEMQGDKLHIKGEMHVNGRTIHVDLDIEIINGRIEHHRVDTK | 1.35
4 | SEEEKLSRELSKLILHYLHTGDWDQITELADPNVRIHDTINGRDNDNHGWEMLIALMEQLGVDVRRFHHIRVIGDKVHMEVELNFNGRTVHAEWTFKVVDGRMKSIEIRTK | 1.34
5 | SEEEKLSRELVNEFLRLWKTGDWRRFHELADPDAKQQYNVNGQNFDYHGRDEVTDAVREFLNRLGVDHFHVHDSRIIGEKKEIDGHLNFNGRTHHIEMVVVVINGRVHKIEFHVR | 0.28
6 | SEEEKLTREFAEMWRHTIETGDEEEMWRMADPNVRVDFDGKELHGRELFQEHFRKLGVDHFIVRRIHVQGEKLRIDGSHIYNGQHIHTELISQKVNGRWIIDQVKVH | 1.36
7 | SEEEKLWHEIIRRILHSWDTGDEDTLNELIDPNARLIIDVNGRIIRRHGWEEMHEFIEKVRRDLGADHVHFDHINIQGNKVETDVTIEIGDKKMRSHLIIIVIDGQIHELKIIHR | 1.83
8 | SEEEKMVEYAIRLIDSLIRTGDERVLMSLLDPHAKMDVNGKDLIGREFLKHWTHQYKNVKLRDIKVKDAEVQGDKIRIHVELEIEFNGRRDSRDETWYIDKFDGRWLVEEIRVK | 1.15
9 | SEEEKNARDFLRLIFNHVHTGDFRHMSKLFDPHVRIQIGDKVFHGREEAERVWLEWRVEDIKIRHIDIQGDKLIVDTEVHGNFNGRNRNIETEIHVRKVDGKWILESMSVI | 2.54
10 | SEEEKRADEFNRRWVHKMQTGDEESLHELIDPNAKLHFEGHDEVGMQRVSHTIVKFFLEIRVHYIHITDARVYDGRLELDTRVDGEFNGKRDTLKIELYVLKVNGVWLLKELRVS | 1
11 | SEEEKRAEEWVKLMIHAHLTGDFHLLERFADPHTRVDFNGVENIGMEEVSRWIKEWRRRIDHTEIRLHRIRLQGDKVHVKTELILEYDGRTEFIDSRINLIVINGVLKELRVTLH | 1.38
12 | SEEEKRAKKLIEIFMESIETGDWKEIHRMMDPTTRLEQGDYEHHGRDEIRELWLQELLDLGVERIRVKVHHVDVIDGKAHVDVTIHFNGVTQRRHYVIVKIDGRWMIKLVIIR | 1.81
13 | SEEEKRARIASELLFEYLHTGDETLWEELMDPDVRLEINGRLFHGMDSFRHALEIWLKEIRLRDMRVRELHVIGDKIHVNSEDEVEVNGRVVNYESRLDMEKIDGRWRIKRTSIK | 1.19
14 | SEEEKRIRDWARLMEEWRRTGDEEDMSRNLDPNARLILIIDGRNILFHGREEVVRVLEELKERLGFKHEEIKDSRVQGDFLHIHGTLRFDGVETEVRVDTIVINGVVRTLKYHFE | 0.467
15 | SEEEKRMRDVLRRMEEALKTGDWKFLKDLLDPHTRTVINGRDRHGREFVLEVFSRFGADHSDIEDEDFQGNFVILHLEMEIGDKRIRLRIYIEKINGRWIWRHVIFD | 2.85
16 | SEEEKRMTEDAEHFWRRFLTGDWRTLSRLIDPHVIIHINGVDLHGRHDAHREMEEHAEQFKNIKVHIDHIDVVGDKLHVDVTININGRRFKEEIIIVMFNGRVKELEVRTH | 1.61
17 | SEEEKRNHEIAKKFIEAFETGDEDFVNHMADPHVKIIVDGVELHGRDQLHHVRKWLEERYPNVRWHLDDMRVQGNKVFLETTLHVGDKTRKSEIILIVINGRLKEIEMRIR | 1.92
18 | SEEEKRWEDWARLMLNWLRTGDEEKISNLMDPNAKSETLIDGRRVEYHGREEVSRFLFELFEEFGIDHLHVRHYDVFDGVFHAHFRVHVGEKERELEVEFHVVDGRITVDTVKFH | 1.5
19 | SEEEKSAKIAVDLLLKSQLTGDEQTISELLDPNVRLDVNGREYHGREEYKKWFKHMVERADHMEIRLRHVHFYDGQVHVIGILIIRVNGKELRWEQILVVDKIDGRWLLSEFNFH | 2.63
20 | SEEEKSSHLSIRLWLEMLITGDEDHLEHLADPNVRIEFEGREFHGRERAMHWMRHVSRHMRIEHIQIRRIHYFDGRLQLEGRIDGNINGRNHRFDSELEVTKIDGRWLLTSERIE | 1.24
21 | SEEEKTLERIARLHIQLWLTGDEDTLKKLADPDDRLVVDFENHTWEHHGREEVEKHTKHFLRHLRITHVDHHTVQIINGKAHMHTTVDFQVNGKIVKMHTTIIVVEVNGRLKFVRIEVH | 1.22
22 | SEEEKTSHHLLKLIKHDRETGNEKRMEEYIDPHVKLLINGREFHGWEDALHWIREAGIKHFELKHIDIIGEKLRIDGVINYNGQTHRITFHAIKVDGVWLNKEINHG | 0.121
23 | SEEEKTVKELVRLILHLLSTGDEEKWLHLADPNMRIEIDFNGKHVELHGREHVHWLLKQFKNARIEIELKHVHVYDGVAEITSILHYHQGDFHWHTESEVMVVVVDGRIKEISFRIR | 2.24
24 | SEEEKVIWDIFQDWVRAYHTGNEDLIEHLMDPHVRLDINGKEKHGREWVRYHLHELREHIRTKEYEVHHFDVVDGRAHADYEFHVEYNGREFYRRTHIEIQIVNGKIRVINIRFE | 1.43
25 | SEEEKWAELALEETLRHLKTGDPRVLLELADPNVKLDVNGREYHGREVFLNFIEEFREKFKNITIEVKDRDVVNGRLITHLRLIVNGKEERVHMRSHKVDGQWVLDSVKIE | 1.9
